According to publication PMC12044695:

Assays:
Assay in all cases: ELISA; enzyme-linked lectin assay (ELLA): extracted glycoproteins immobilised at 4 μg/mL on high-binding 96-well plates, blocked with 0.5% PVA, probed 2 h at room temperature with WGAHRP or AuNP–WGAHRP (1 μg/mL WGAHRP) in PBS with 1 mM CaCl2 and 1 mM MgCl2, ABTS read at 405 nm; then the same plate probed with WGA antibodies and AlexaFluor 633 secondary antibodies (FLISA)
[1] = target: WGA-binding glycoproteins purified from C2C12 cells in differentiation conditions
[2] = target: WGA-binding glycoproteins purified from C2C12 cells in growth condition
[3] = target: WGA-binding glycoproteins purified from NE-4C cells in growth condition
[4] = target: WGA-binding glycoproteins purified from NSC-34 cells in differentiation conditions
[5] = target: WGA-binding glycoproteins purified from NSC-34 cells in growth condition

fluorescence intensity (FLISA) against WGAHRP (% lower than WGAHRP) [1]: 50
fluorescence intensity (FLISA) against WGAHRP (% lower than WGAHRP) [2]: 50
fluorescence intensity (FLISA) against WGAHRP (% lower than WGAHRP) [3]: 50
fluorescence intensity (FLISA) against WGAHRP (% lower than WGAHRP) [4]: 50
fluorescence intensity (FLISA) against WGAHRP (% lower than WGAHRP) [5]: 50
Substance: gold nanoparticle-conjugated WGAHRP (AuNP-MSA-WGAHRP conjugate) (from UniProt P00433 31-338)
